Our source for the IC50 (read off the curve) values is patent publication US20140248710A1.

This test has as its target G-131-C affinity purified goat polyclonal antibody against the N-terminus of cardiac troponin I (BiosPacific, Emeryville, Calif.). The test can be described thus: Competition FRET: the unlabeled N-terminal CTnI peptide is titrated against the labeled peptide-oligo conjugates for binding to G-131-C. The antibody concentration of the inset is not given. [inset].

Ends that are not written are not given here.

B1: Unlabeled N-terminal CTnI peptide (peptide)
peptide: MADGSSDAAREPRPAC
modifications: not fully specified
Take B1: the IC50 (read off the curve) is 40 nM.
